Source: article PMC8791944, “GLUT3 inhibitor discovery through in silico ligand screening and in vivo validation in eukaryotic expression systems” (Scientific Reports, 2022)

Assays:
[1] = substrate: OC[C@H]1OC(O)[C@H](O)[C@@H](O)[C@@H]1O; assay: cells, lysate or membranes; format: cell-based, human; settings: other: wild-type GLUT3 in hxt^0 cells
Text: Hexose transporter deficient yeast strains (hxt^0) EBY.VW4000 for expression of GLUT5, EBY.S7 (carrying the fgy1 mutation) for expression of GLUT1-3, and SDY.022 (EBY.S7 Δerg4) for expression of GLUT4 cells, and corresponding plasmids[65],[66],[73] were from the labs of Drs.
The plasmids containing functional constructs of GLUT1-5 were transformed in the corresponding hxt^0 strains[65],[66],[73] (EBY.VW4000 for GLUT5S72Y, EBY.S7 for GLUT1, GLUT2∆loopS_Q455R, GLUT3 and GLUT3S66Y, and SDY.022 for GLUT4) and grown on 2% (w/v) agar plates of the respective media supplemented with 1% (w/v) maltose. An initial culture of ~ 10 ml was started with a few colonies and grown for 2–3 days if the media was SC-uracil with 1% (w/v) maltose (GLUT1, GLUT3, GLUT4) or 1–2 days if the media was YEP with 1% (w/v) maltose and 100 µg/ml geneticin G418 (GLUT2∆loopS_Q455R and GLUT5S72Y). […] Then, cells were transferred in the same media so that OD600nm ~ 0.5 and grown further for 1–2 days.
For transport activity assay, cells in the hexose media were centrifuged (1000×g, 5 min, room temperature), washed once with PBS buffer (10 mM Na2HPO4, 1.8 mM KH2PO4, 2.7 mM KCl, 137 mM NaCl, pH 7.4), and resuspended in PBS buffer at an OD600nm ~ 10; each assay contained 100 µl of this cell solution. […] The radioactivity was determined with a scintillation counter (Tri-carb 2900TR, Perkin Elmer, USA).

[2] = substrate: OC[C@H]1OC(O)[C@H](O)[C@@H](O)[C@@H]1O; assay: cells, lysate or membranes; settings: other: GLUT3S66Y in hxt^0 cells

| Protein | Km [1] [mM] | Km [2] [mM] |
| --- | --- | --- |
| GLUT3 (Homo sapiens) (protein, expressed in transfected cells; host or cells: Saccharomyces cerevisiae hxt0 strain EBY.S7 (fgy1)) MGTQKVTPALIFAITVATIGSFQFGYNTGVINAPEKIIKEFINKTLTDKGNAPPSEVLLTSLWSLSVAIFSVGGMIGSFSVGLFVNRFGRRNSMLIVNLLAVTGGCFMGLCKVAKSVEMLILGRLVIGLFCGLCTGFVPMYIGEISPTALRGAFGTLNQLGIVVGILVAQIFGLEFILGSEELWPLLLGFTILPAILQSAALPFCPESPRFLLINRKEEENAKQILQRLWGTQDVSQDIQEMKDESARMSQEKQVTVLELFRVSSYRQPIIISIVLQLSQQLSGINAVFYYSTGIFKDAGVQEPIYATIGAGVVNTIFTVVSLFLVERAGRRTLHMIGLGGMAFCSTLMTVSLLLKDNYNGMSFVCIGAILVFVAFFEIGPGPIPWFIVAELFSQGPRPAAMAVAGCSNWTSNFLVGLLFPSAAHYLGAYVFIIFTGFLITFLAFTFFKVPETRGRTFEDITRAFEGQAHGADRSGKDGVMEMNSIEPAKETTTNV | 3.11 ± 0.42 |  |
| GLUT3S66Y (Homo sapiens; S66Y) (protein) MGTQKVTPALIFAITVATIGSFQFGYNTGVINAPEKIIKEFINKTLTDKGNAPPSEVLLTSLWSLYVAIFSVGGMIGSFSVGLFVNRFGRRNSMLIVNLLAVTGGCFMGLCKVAKSVEMLILGRLVIGLFCGLCTGFVPMYIGEISPTALRGAFGTLNQLGIVVGILVAQIFGLEFILGSEELWPLLLGFTILPAILQSAALPFCPESPRFLLINRKEEENAKQILQRLWGTQDVSQDIQEMKDESARMSQEKQVTVLELFRVSSYRQPIIISIVLQLSQQLSGINAVFYYSTGIFKDAGVQEPIYATIGAGVVNTIFTVVSLFLVERAGRRTLHMIGLGGMAFCSTLMTVSLLLKDNYNGMSFVCIGAILVFVAFFEIGPGPIPWFIVAELFSQGPRPAAMAVAGCSNWTSNFLVGLLFPSAAHYLGAYVFIIFTGFLITFLAFTFFKVPETRGRTFEDITRAFEGQAHGADRSGKDGVMEMNSIEPAKETTTNV |  | 1.42 ± 0.17 |
